Assay results from patent publication US20140271602, “NUCLEOTIDE-SPECIFIC RECOGNITION SEQUENCES FOR DESIGNER TAL EFFECTORS” (THE BROAD INSTITUTE INC., published 2014).

Experiments:
[1] = target: T1, TALE1-NN (CACNA1C site 1 activator) (Xanthomonas (engineered), UniProt P14727 SEQ:1-983); experiment: cell_activity; HEK 293FT, endogenous CACNA1C mRNA; conditions: tags: VP64, 2A-GFP
T1 chain: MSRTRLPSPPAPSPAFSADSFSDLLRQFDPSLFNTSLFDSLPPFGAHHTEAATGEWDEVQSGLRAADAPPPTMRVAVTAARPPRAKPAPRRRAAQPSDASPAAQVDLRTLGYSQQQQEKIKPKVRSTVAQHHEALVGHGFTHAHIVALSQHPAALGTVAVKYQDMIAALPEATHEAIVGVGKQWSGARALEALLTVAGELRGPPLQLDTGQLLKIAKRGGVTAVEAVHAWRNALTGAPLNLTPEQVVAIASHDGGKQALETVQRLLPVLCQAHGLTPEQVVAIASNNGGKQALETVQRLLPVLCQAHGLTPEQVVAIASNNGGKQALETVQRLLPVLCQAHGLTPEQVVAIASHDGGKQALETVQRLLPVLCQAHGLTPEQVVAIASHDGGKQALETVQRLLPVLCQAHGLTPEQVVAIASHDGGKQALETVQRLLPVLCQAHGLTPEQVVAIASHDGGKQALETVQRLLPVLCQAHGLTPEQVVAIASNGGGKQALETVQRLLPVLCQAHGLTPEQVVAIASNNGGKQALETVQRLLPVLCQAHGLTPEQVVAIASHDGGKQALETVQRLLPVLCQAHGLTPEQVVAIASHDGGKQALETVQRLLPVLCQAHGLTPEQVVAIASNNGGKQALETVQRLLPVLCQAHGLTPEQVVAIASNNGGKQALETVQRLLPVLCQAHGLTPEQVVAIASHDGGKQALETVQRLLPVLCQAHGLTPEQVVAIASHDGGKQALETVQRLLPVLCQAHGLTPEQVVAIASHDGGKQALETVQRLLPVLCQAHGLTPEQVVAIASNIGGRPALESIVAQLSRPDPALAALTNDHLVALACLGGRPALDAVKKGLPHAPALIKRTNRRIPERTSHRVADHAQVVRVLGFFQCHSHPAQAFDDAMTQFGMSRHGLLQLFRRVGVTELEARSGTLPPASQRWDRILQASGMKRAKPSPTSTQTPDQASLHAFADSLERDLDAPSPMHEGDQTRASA
Method: Changes in mRNA are measured using qRT-PCR as described previously. VP64, VP64 transcription activation domain. All results are collected from three independent experiments in HEK 293FT cells. Error bars indicate s.e.m.; n=3. FIG. 19(b) discloses SEQ ID NOS 63 and 62, respectively, in order of appearance.
Using qRT-PCR, the performance of NN, NK, NH, and HN for targeting endogenous genomic sequences was further compared. The ability of NN-, NK-, NH-, and HN-TALEs to activate CACNA1C transcription by targeting the two endogenous target sites was tested (FIG. 19b). […] Both TALE 1-NH and TALE2-NH were able to achieve similar levels of transcriptional activation as TALE1-NN and TALE2-NN (˜5 and ˜3 folds of activation for targets 1 and 2, respectively) and twice more than TALE-NK and TALE2-NK (FIG. 19b). […] On the other hand, based on all the results from specificity and endogenous activity tests, the RVD NH seems to be a more suitable substitute for NN than NK when higher targeting specificity is desired, as it also provides higher levels of biological activity. Further testing using additional endogenous genomic targets helps validate the broad utility of NH as a highly specific G-targeting RVD.
For the endogenous gene transcriptional level assay to test the biological activities of TALE activators and TALE repressors, HEK 293FT cells were seeded into 24-well plates. […]

[2] = target: T2, TALE1-NH (CACNA1C site 1 activator) (Xanthomonas (engineered), UniProt P14727 SEQ:1-983); experiment: cell_activity; HEK 293FT, endogenous CACNA1C mRNA; reporter 1.9x that of NK; conditions: tags: VP64, 2A-GFP
T2 chain: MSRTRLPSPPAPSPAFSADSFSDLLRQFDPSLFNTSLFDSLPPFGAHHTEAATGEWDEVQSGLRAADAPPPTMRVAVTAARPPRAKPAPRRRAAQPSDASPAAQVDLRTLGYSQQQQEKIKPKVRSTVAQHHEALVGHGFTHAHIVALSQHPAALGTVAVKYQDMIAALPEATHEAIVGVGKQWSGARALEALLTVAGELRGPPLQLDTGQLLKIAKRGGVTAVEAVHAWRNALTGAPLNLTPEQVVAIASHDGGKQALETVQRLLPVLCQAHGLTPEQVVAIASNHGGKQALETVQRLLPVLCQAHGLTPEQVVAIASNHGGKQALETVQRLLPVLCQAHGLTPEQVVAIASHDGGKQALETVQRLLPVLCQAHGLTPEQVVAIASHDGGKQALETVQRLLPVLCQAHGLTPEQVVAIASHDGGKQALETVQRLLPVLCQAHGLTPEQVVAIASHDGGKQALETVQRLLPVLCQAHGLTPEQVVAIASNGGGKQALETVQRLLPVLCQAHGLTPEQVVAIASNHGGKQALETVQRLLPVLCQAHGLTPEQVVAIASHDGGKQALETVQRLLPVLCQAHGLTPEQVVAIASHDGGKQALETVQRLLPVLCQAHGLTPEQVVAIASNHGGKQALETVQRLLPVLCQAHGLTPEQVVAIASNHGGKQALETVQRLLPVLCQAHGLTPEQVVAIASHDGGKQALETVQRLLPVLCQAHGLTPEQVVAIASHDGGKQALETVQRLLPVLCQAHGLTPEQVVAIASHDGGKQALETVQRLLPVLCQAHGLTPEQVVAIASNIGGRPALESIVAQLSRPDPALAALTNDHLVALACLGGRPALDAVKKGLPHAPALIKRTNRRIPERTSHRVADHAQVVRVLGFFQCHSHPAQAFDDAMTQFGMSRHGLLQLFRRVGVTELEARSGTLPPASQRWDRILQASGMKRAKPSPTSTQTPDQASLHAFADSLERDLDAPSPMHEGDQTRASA

B1: CACNA1C site 1 (dsDNA)
DNA 1: TCGGCCCCTGCCGGCCCA
DNA 2: TGGGCCGGCAGGGGCCGA
**Q.** For B1, which activity [1] is on record?
**A.** ~5 fold activation

**Q.** And the activity [2]?
**A.** ~5 fold activation
